B1: full-length mouse GITR fused to EGFP at its C terminus (mGITR_(egfp)), purified (receptor, UniProt O35714 20-228, looked up)
chain: QPSVVEEPGCGPGKVQNGSGNNTRCCSLYAPGKEDCPKERCICVTPEYHCGDPQCKICKHYPCQPGQRVESQGDIVFGFRCVACAMGTFSAGRDGHCRLWTNCSQFGFLTMFPGNKTHNAVCIPEPLPTEQYGHLTVIFLVMAACIFFLTTVQLGLHIWQLRRQHMCPRETQPFAEVQLSAEDACSFQFPEEERGEQTEEKCHLGGRWP
modifications: intersubunit disulfide bond at Cys55
notes: signal peptide in the construct; mouse GITR, full-length gene in pEZT-BM, followed by a thrombin cleavage site, EGFP and 8x His; Cys14 lies in the predicted signal peptide and is not in the mature protein; last residue P228; Disulfide-linked dimer by cryo-EM; EGFP fluorescence was monitored in FSEC; also called glucocorticoid-induced TNF receptor; source: HEK293S GnTI- suspension cells (BacMam), …
B2: full-length mGITR_(egfp) with C-terminal 1D4 tag, in HEK293 lysate (receptor, mouse, UniProt O35714 20-228, looked up)
chain: QPSVVEEPGCGPGKVQNGSGNNTRCCSLYAPGKEDCPKERCICVTPEYHCGDPQCKICKHYPCQPGQRVESQGDIVFGFRCVACAMGTFSAGRDGHCRLWTNCSQFGFLTMFPGNKTHNAVCIPEPLPTEQYGHLTVIFLVMAACIFFLTTVQLGLHIWQLRRQHMCPRETQPFAEVQLSAEDACSFQFPEEERGEQTEEKCHLGGRWP
modifications: intersubunit disulfide bond at Cys55
notes: signal peptide in the construct; mouse GITR, full length (to P228), followed by EGFP and a 1D4 tag; May be the same construct as m1; the methods name an 8x His tag for the purified protein, the results a 1D4 tag for all constructs analysed in lysate; source: HEK293 cells, solubilized with DDM, in lysate; not shown: EGFP, C-terminal, kept; 1D4, C-terminal, kept
B3: mGITR_(ΔCTD-egfp) (domain or fragment, mouse, UniProt O35714 20-185, looked up)
chain: QPSVVEEPGCGPGKVQNGSGNNTRCCSLYAPGKEDCPKERCICVTPEYHCGDPQCKICKHYPCQPGQRVESQGDIVFGFRCVACAMGTFSAGRDGHCRLWTNCSQFGFLTMFPGNKTHNAVCIPEPLPTEQYGHLTVIFLVMAACIFFLTTVQLGLHIWQLRRQHM
notes: signal peptide in the construct; mouse GITR without the unstructured C-terminal residues C186-P228; also called CTD deletion construct; source: HEK293 cells, solubilized with DDM, in lysate; not shown: EGFP, C-terminal, kept; 1D4, C-terminal, kept
B4: mGITR_(ΔCTD-egfp)-C164A (domain or fragment, mouse, UniProt O35714 20-185, looked up)
chain: QPSVVEEPGCGPGKVQNGSGNNTRCCSLYAPGKEDCPKERCICVTPEYHCGDPQCKICKHYPCQPGQRVESQGDIVFGFRCVACAMGTFSAGRDGHCRLWTNCSQFGFLTMFPGNKTHNAVCIPEPLPTEQYGHLTVIFLVMAAAIFFLTTVQLGLHIWQLRRQHM
notes: signal peptide in the construct; mouse GITR without the C-terminal residues C186-P228, with C164A; also called C164A mutant; source: HEK293 cells, solubilized with DDM, in lysate; not shown: EGFP, C-terminal, kept; 1D4, C-terminal, kept
B5: full-length mouse GITR ligand (mGITRL) (ligand, UniProt Q7TS55 1-173, looked up)
chain: MEEMPLRESSPQRAERCKKSWLLCIVALLLMLLCSLGTLIYTSLKPTAIESCMVKFELSSSKWHMTSPKPHCVNTTSDGKLKILQSGTYLIYGQVIPVDKKYIKDNAPFVVQIYKKNDVLQTLMNDFQILPIGGVYELHAGDNIYLKFNSKDHIQKTNTYWGIILMPDLPFIS
notes: mouse GITRL, full-length gene with transmembrane region, in pEZT-BM; the oligomeric state of the full-length protein was not measured here; source: HEK293S GnTI- suspension cells (BacMam), solubilized in DDM, purified (StrepTrap HP, Superose 6)

Columns and labels:
[1] = molecular target: the molecule itself; assay: cryo-EM structure; mGITR_(egfp)/DTA-1 Fab complex in DDM, single-particle cryo-EM, global resolution 4.4 Å
[2] = molecular target: the molecule itself; assay: non-reducing SDS-PAGE with anti-1D4 Western blot; lysate, nonreduced (-DTT); denaturing SDS-PAGE, shows only covalent dimers
[3] = molecular target: B1; assay: SEC; FSEC of purified proteins mixed with mGITR_(egfp), EGFP fluorescence (tryptophan fluorescence as control), Superose 6 Increase 10/300 GL, 20 mM tris pH 8.0, 300 mM NaCl, 0.5 mM DDM; molar ratio 1:15:4:2 for mGITR_(egfp):mGITRL:Fab:IgG; details: both partners purified

| Binder | stoichiometry N [2] | other results |
| --- | --- | --- |
| B1 | – | stoichiometry N [1]: 2 |
| B2 | 2 | – |
| B3 | 2 | – |
| B4 | 2 | – |
| B5 | – | binding result [3]: binds |

Source: article PMC8880771, “Therapeutic antibody activation of the glucocorticoid-induced TNF receptor by a clustering mechanism” (Science Advances, 2022)
